Consider 17 molecules from PMC2099194 (The Journal of Cell Biology, 2007).

As usually defined, the stoichiometry N is the number of molecules, sites or subunits per partner or assembly. One may read the Kd as a measure of binding affinity in units of concentration.

Read-outs that look alike come from different tables or passages of the source.

The target of assay [1] is His-ABD-IgFLNa8-15+24 (human) (UniProt P21333). Briefly: rotary-shadowing electron microscopy.
The target in assay [2] is His-IgFLNa8-15+24 (human). Briefly: rotary-shadowing electron microscopy.
Assay [3] concerns the target F-actin (rabbit skeletal muscle actin) (rabbit) (UniProt P68135). Briefly: co-sedimentation.
The target is the same in assay [4]. In words: co-sedimentation. This is another data set of the same source.
The target of assay [5] is recombinant human filamin A (FLNa), full length (human) (UniProt P21333). Briefly: rotary-shadowing electron microscopy.
For assay [6], the target named is His-IgFLNa16-24 (human). Briefly: rotary-shadowing electron microscopy.
The target in assay [7] is FLAG-tagged full-length FLNa (human) (UniProt P21333). Briefly: rotary-shadowing electron microscopy.
The target in assay [8] is full-length FLNa lacking hinge 1 (human) (UniProt P21333). In words: rotary-shadowing electron microscopy.
For assay [9], the target named is His-ABD-IgFLNa1-8+24 (human) (UniProt P21333). In words: rotary-shadowing electron microscopy.
Assay [10] concerns the target His-IgFLNa1-8+24 (human). In words: rotary-shadowing electron microscopy.
Assay [11] has as its target His-ABD-IgFLNa16-24 (human) (UniProt P21333). Briefly: rotary-shadowing electron microscopy.
The target of assay [12] is full-length FLNa lacking hinge 2 (human) (UniProt P21333). Briefly: rotary-shadowing electron microscopy.
For assay [13], the target named is FLAG-tagged full-length FLNa (human, UniProt P21333 1-2647). In words: pull-down.

With “His-ABD-IgFLNa8-15+24 (from UniProt P21333 1-278) (domain or fragment)”, the stoichiometry N in [1] worked out at 2.

On to His-IgFLNa8-15+24 (domain or fragment), for which, in [2], the stoichiometry N came to 2.

With “recombinant human filamin A (FLNa), full length, P21333 1-2647”, in assay [3], the KD of the high avidity site (apparent, two independent site model) was 0.017 µM; the KD of the low affinity site (apparent, two independent site model) was found to be 0.22 µM; the percent bound of total input was found to be 56.3%. The molecule also returned a percent bound of total input in assay [4] of 83.6%. For the same molecule, the stoichiometry N in assay [5] was 2.

With “FLNa ABD (F-actin binding domain alone) (domain or fragment)”, in assay [3], the dissociation constant (Kd) stood at 17 µM; the percent bound of total input is 8.7%; the stoichiometry N (ratio to actin, mol/mol) amounted to 1. In assay [4], the percent bound of total input came to 11.7%.

In turn, His-IgFLNa16-24 (domain or fragment) displayed a stoichiometry N in assay [6] of 2.

Molecule “FLAG-tagged full-length FLNa, P21333 1-2647” showed a stoichiometry N in assay [7] of 2.

In the case of ABD-IgFLNa1-2 (domain or fragment), in assay [3], the Kd is 11.8 µM and the stoichiometry N (ratio to actin, mol/mol) came to 1.3.

For the molecule “full-length FLNa lacking hinge 1 (from UniProt P21333 1-2647) (natural protein)”, the stoichiometry N in assay [8] is 2.

For the molecule FLAG-ABD-IgFLNa1-8 (domain or fragment), in [3], the Kd came to 7.1 µM and the stoichiometry N (ratio to actin, mol/mol) is 1.8.

“His-ABD-IgFLNa1-8+24 (from UniProt P21333 1-278) (domain or fragment)” came in with a stoichiometry N in [9] of 2.

In turn, His-IgFLNa1-8+24 (domain or fragment) displayed a stoichiometry N in assay [10] of 2.

ABD-IgFLNa1-23 (domain or fragment): in assay [3], the equilibrium dissociation constant (Kd) came out at 0.31 µM and the stoichiometry N (ratio to actin, mol/mol) was 12.

ABD-IgFLNa1-15 (domain or fragment): in assay [3], the dissociation constant (Kd) worked out at 0.67 µM and the stoichiometry N (ratio to actin, mol/mol) is 5.4.

In assay [11], “His-ABD-IgFLNa16-24 (from UniProt P21333 1-278) (domain or fragment)” had a stoichiometry N of 2.

In turn, “full-length FLNa lacking hinge 2 (from UniProt P21333 1-2647) (natural protein)” came in with a stoichiometry N in assay [12] of 2.

Regarding ABD-IgFLNa1-4 (domain or fragment), in assay [3], the Kd was 7.5 µM and the stoichiometry N (ratio to actin, mol/mol) stood at 1.7.

B1: full-length human recombinant FilGAP (natural protein, UniProt Q8N264 1-748, looked up)
chain: MEENNDSTENPQQGQGRQNAIKCGWLRKQGGFVKTWHTRWFVLKGDQLYYFKDEDETKPLGTIFLPGNKVSEHPCNEENPGKFLFEVVPGGDRDRMTANHESYLLMASTQNDMEDWVKSIRRVIWGPFGGGIFGQKLEDTVRYEKRYGNRLAPMLVEQCVDFIRQRGLKEEGLFRLPGQANLVKELQDAFDCGEKPSFDSNTDVHTVASLLKLYLRELPEPVIPYAKYEDFLSCAKLLSKEEEAGVKELAKQVKSLPVVNYNLLKYICRFLDEVQSYSGVNKMSVQNLATVFGPNILRPKVEDPLTIMEGTVVVQQLMSVMISKHDCLFPKDAELQSKPQDGVSNNNEIQKKATMGQLQNKENNNTKDSPSRQCSWDKSESPQRSSMNNGSPTALSGSKTNSPKNSVHKLDVSRSPPLMVKKNPAFNKGSGIVTNGSFSSSNAEGLEKTQTTPNGSLQARRSSSLKVSGTKMGTHSVQNGTVRMGILNSDTLGNPTNVRNMSWLPNGYVTLRDNKQKEQAGELGQHNRLSTYDNVHQQFSMMNLDDKQSIDSATWSTSSCEISLPENSNSCRSSTTTCPEQDFFGGNFEDPVLDGPPQDDLSHPRDYESKSDHRSVGGRSSRATSSSDNSETFVGNSSSNHSALHSLVSSLKQEMTKQKIEYESRIKSLEQRNLTLETEMMSLHDELDQERKKFTMIEIKMRNAERAKEDAEKRNDMLQKEMEQFFSTFGELTVEPRRTERGNTIWIQ
For B1, the binding result in [13] is given as “binds”.
